Key:
[1] = biological target: T1, human soluble urokinase plasminogen activator receptor (suPAR) (human, UniProt Q03405 23-303, limits assumed); assay: off-rate (kdis) screen of scFv clones, biosensor (Octet)
T1 construct: Target antigen of the off-rate screen; also called hsuPAR; human suPAR

[2] = biological target: T2, cynomolgus soluble urokinase plasminogen activator receptor (suPAR) (cynomolgus, UniProt Q9GK78 23-303, limits assumed); assay: as above
T2 construct: Target antigen of the off-rate screen; also called cynomolgus uPAR; cynomolgus suPAR
T2 sequence (Q9GK78 23-303 limits assumed): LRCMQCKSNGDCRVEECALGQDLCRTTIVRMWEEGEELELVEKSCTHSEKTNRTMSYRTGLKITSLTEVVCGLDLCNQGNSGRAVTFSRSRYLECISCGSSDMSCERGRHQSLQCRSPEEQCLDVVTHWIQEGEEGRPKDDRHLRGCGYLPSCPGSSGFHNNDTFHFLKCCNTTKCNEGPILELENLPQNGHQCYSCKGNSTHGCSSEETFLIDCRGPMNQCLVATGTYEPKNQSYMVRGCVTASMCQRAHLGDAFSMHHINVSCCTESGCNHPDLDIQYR

T1 sequence (Q03405 23-303 limits assumed): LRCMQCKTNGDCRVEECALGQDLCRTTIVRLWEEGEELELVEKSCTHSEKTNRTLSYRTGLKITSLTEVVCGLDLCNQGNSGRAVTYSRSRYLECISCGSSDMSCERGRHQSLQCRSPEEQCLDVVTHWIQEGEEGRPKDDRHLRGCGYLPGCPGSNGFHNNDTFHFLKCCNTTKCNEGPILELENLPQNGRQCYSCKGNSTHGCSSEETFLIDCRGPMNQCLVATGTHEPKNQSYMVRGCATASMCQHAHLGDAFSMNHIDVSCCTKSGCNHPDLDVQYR

| Binder | koff [1] | koff [2] |
| --- | --- | --- |
| suPAR_DB01_B03 (scFv, V domains shown, screened as scFv) VH: QVQLVQSGAEVKKPGASVKVSCKASGFNIKDYYIHWVRQAPGQGLEWMGWIDPENGNTIYAQKFQGRVTMTRDTSTSTVYMELSSLRSEDTAVYYCARGYDVDWFVYWGQGTLVTVSS VL: DIQMTQSPSSLSASVGDRVTITCRASSSVSYMYWYQQKPGKAPKLLIYRTSNLASGVPSRFSGSGSGTDFTLTISSLQPEDFATYYCQQYHSYPPTFGGGTKVEIK | 0.00329 s⁻¹ | 3.5e-07 s⁻¹ |
| suPAR_DB01_D01 (scFv, V domains shown, screened as scFv) VH: QVQLVQSGAEVKKPGASVKVSCKASGYTFTGYYMHWVRQAPGQGLEWMGWIDHENGSTIYAQKFQGRVTMTRDTSTSTVYMELSSLRSEDTAVYYCARGYDVDWFVYWGQGTLVTVSS VL: DIQMTQSPSSLSASVGDRVTITCSARSSVSYMYWYQQKPGKAPKLLIYRTSNLASGVPSRFSGSGSGTDFTLTISSLQPEDFATYYCQQYHSYPPTFGGGTKVEIK | 0.000531 s⁻¹ | 0.000369 s⁻¹ |
| suPAR_DB01_C11 (scFv, V domains shown, screened as scFv) VH: QVQLVQSGAEVKKPGASVKVSCKASGGTFTSYYMHWVRQAPGQGLEWMGWIDPENGSTIYDQKFQGRVTMTRDTSTSTVYMELSSLRSEDTAVYYCARGYDVDWFVYWGQGTLVTVSS VL: DIQMTQSPSSLSASVGDRVTITCSARSSVSYMYWYQQKPGKAPKLLIYRTSNLASGVPSRFSGSGSGTDFTLTISSLQPEDFATYYCQQYHSYPPTFGGGTKVEIK | 0.00226 s⁻¹ | 8.96e-05 s⁻¹ |
| suPAR_DB01_D03 (scFv, V domains shown, screened as scFv) VH: QVQLVQSGAEVKKPGASVKVSCKASGGTFTNYYMHWVRQAPGQGLEWMGWIDHENGNTIYDQKFQGRVTMTRDTSTSTVYMELSSLRSEDTAVYYCARGYDVDWFVYWGQGTLVTVSS VL: DIQMTQSPSSLSASVGDRVTITCSARSSVSYMYWYQQKPGKAPKLLIYRTSNLASGVPSRFSGSGSGTDFTLTISSLQPEDFATYYCQQYHSYPPTFGGGTKVEIK | 0.00362 s⁻¹ | 0.000203 s⁻¹ |
| suPAR_DB01_B10 (scFv, V domains shown, screened as scFv) VH: QVQLVQSGAEVKKPGASVKVSCKASGYTFSSYYMHWVRQAPGQGLEWMGWIDPENGSTIYDQKFQGRVTMTRDTSTSTVYMELSSLRSEDTAVYYCARGYDVDWFVYWGQGTLVTVSS VL: DIQMTQSPSSLSASVGDRVTITCSARQSVSSMYWYQQKPGKAPKLLIYRTSNLASGVPSRFSGSGSGTDFTLTISSLQPEDFATYYCQQYHSYPPTFGGGTKVEIK | 0.00105 s⁻¹ | 0.00108 s⁻¹ |
| suPAR_DB01_B05 (scFv, V domains shown, screened as scFv) VH: QVQLVQSGAEVKKPGASVKVSCKASGYTFTNYYMHWVRQAPGQGLEWMGWIDPENGNTIYDQKFQGRVTMTRDTSTSTVYMELSSLRSEDTAVYYCARGYDVDWFVYWGQGTLVTVSS VL: DIQMTQSPSSLSASVGDRVTITCRASSSVSYMYWYQQKPGKAPKLLIYRTSNLASGVPSRFSGSGSGTDFTLTISSLQPEDFATYYCQQYHSYPPTFGGGTKVEIK | 0.00407 s⁻¹ | 0.000181 s⁻¹ |
| suPAR_DB01_C12 (scFv, V domains shown, screened as scFv) VH: QVQLVQSGAEVKKPGASVKVSCKASGDTFTSYYMHWVRQAPGQGLEWMGWIDHENGNTIYDQKFQGRVTMTRDTSTSTVYMELSSLRSEDTAVYYCARGYDVDWFVYWGQGTLVTVSS VL: DIQMTQSPSSLSASVGDRVTITCSARSSVSYMYWYQQKPGKAPKLLIYRTSNLASGVPSRFSGSGSGTDFTLTISSLQPEDFATYYCQQYHSYPPTFGGGTKVEIK | 0.00493 s⁻¹ | 0.000105 s⁻¹ |
| suPAR_DB01_B12 (scFv, V domains shown, screened as scFv) VH: QVQLVQSGAEVKKPGASVKVSCKASGYTFTSYYMHWVRQAPGQGLEWMGWIDPENGNTIYDQKFQGRVTMTRDTSTSTVYMELSSLRSEDTAVYYCARGYDVDWFVYWGQGTLVTVSS VL: DIQMTQSPSSLSASVGDRVTITCSARSSVSYMYWYQQKPGKAPKLLIYRTSNLASGVPSRFSGSGSGTDFTLTISSLQPEDFATYYCQQYHSYPPTFGGGTKVEIK | 0.00298 s⁻¹ | 0.000238 s⁻¹ |
| suPAR_DB01_D04 (scFv, V domains shown, screened as scFv) VH: QVQLVQSGAEVKKPGASVKVSCKASGYTFTSYYMHWVRQAPGQGLEWMGWIDHENGSTIYAQKFQGRVTMTRDTSTSTVYMELSSLRSEDTAVYYCARGYDVDWFVYWGQGTLVTVSS VL: DIQMTQSPSSLSASVGDRVTITCSARSSVSYMYWYQQKPGKAPKLLIYRTSNLASGVPSRFSGSGSGTDFTLTISSLQPEDFATYYCQQYHSYPPTFGGGTKVEIK | 0.000872 s⁻¹ | 2.53e-05 s⁻¹ |
| suPAR_DB01_B06 (scFv, V domains shown, screened as scFv) VH: QVQLVQSGAEVKKPGASVKVSCKASGYTFTDYYMHWVRQAPGQGLEWMGWIDHENGNTIYDQKFQGRVTMTRDTSTSTVYMELSSLRSEDTAVYYCARGYDVDWFVYWGQGTLVTVSS VL: DIQMTQSPSSLSASVGDRVTITCRARSSVSYMYWYQQKPGKAPKLLIYRTSNLASGVPSRFSGSGSGTDFTLTISSLQPEDFATYYCQQYHSYPPTFGGGTKVEIK | 0.00348 s⁻¹ | 5.62e-07 s⁻¹ |
| suPAR_DB01_D02 (scFv, V domains shown, screened as scFv) VH: QVQLVQSGAEVKKPGASVKVSCKASGYTFTSYYMHWVRQAPGQGLEWMGWIDPNTGDTNYAQKFQGRVTMTRDTSTSTVYMELSSLRSEDTAVYYCARGYDVDWFVYWGQGTLVTVSS VL: DIQMTQSPSSLSASVGDRVTITCRARSSVSYMYWYQQKPGKAPKLLIYRTSNLASGVPSRFSGSGSGTDFTLTISSLQPEDFATYYCQQYHSYPPTFGGGTKVEIK | 0.00425 s⁻¹ | 0.000343 s⁻¹ |
| suPAR_DB01_B08 (scFv, V domains shown, screened as scFv) VH: QVQLVQSGAEVKKPGASVKVSCKASGYTFTGYYMHWVRQAPGQGLEWMGWIDPENGSTIYDQKFQGRVTMTRDTSTSTVYMELSSLRSEDTAVYYCARGYDVDWFVYWGQGTLVTVSS VL: DIQMTQSPSSLSASVGDRVTITCSARSSVSYMYWYQQKPGKAPKLLIYRTSNLASGVPSRFSGSGSGTDFTLTISSLQPEDFATYYCQQYHSYPPTFGGGTKVEIK | 0.00371 s⁻¹ | 0.000211 s⁻¹ |
| suPAR_DB01_C10 (scFv, V domains shown, screened as scFv) VH: QVQLVQSGAEVKKPGASVKVSCKASGYTFTNYYMHWVRQAPGQGLEWMGWIDPENGNTIYAQKFQGRVTMTRDTSTSTVYMELSSLRSEDTAVYYCARGYDVDWFVYWGQGTLVTVSS VL: DIQMTQSPSSLSASVGDRVTITCRARSSISYMYWYQQKPGKAPKLLIYRTSNLASGVPSRFSGSGSGTDFTLTISSLQPEDFATYYCQQYHSYPPTFGGGTKVEIK | 0.00363 s⁻¹ | 0.000266 s⁻¹ |
| suPAR_DB01_C04 (scFv, V domains shown, screened as scFv) VH: QVQLVQSGAEVKKPGASVKVSCKASGYTFTGYYMHWVRQAPGQGLEWMGWIDPEGGSTIYDQKFQGRVTMTRDTSTSTVYMELSSLRSEDTAVYYCARGYDVDWFVYWGQGTLVTVSS VL: DIQMTQSPSSLSASVGDRVTITCSARSSVSYMYWYQQKPGKAPKLLIYRTSNLASGVPSRFSGSGSGTDFTLTISSLQPEDFATYYCQQYHSYPPTFGGGTKVEIK | 0.00403 s⁻¹ | 0.000303 s⁻¹ |
| suPAR_DB01_C09 (scFv, V domains shown, screened as scFv) VH: QVQLVQSGAEVKKPGASVKVSCKASGFNIKDYYIHWVRQAPGQGLEWMGWIDPENGNTIYAQKFQGRVTMTRDTSTSTVYMELSSLRSEDTAVYYCARGYDVDWFVYWGQGTLVTVSS VL: DIQMTQSPSSLSASVGDRVTITCSARSSVSYMYWYQQKPGKAPKLLIYRTSNLASGVPSRFSGSGSGTDFTLTISSLQPEDFATYYCQQYHSYPPTFGGGTKVEIK | 0.00476 s⁻¹ | 0.000203 s⁻¹ |
| suPAR_DB01_C02 (scFv, V domains shown, screened as scFv) VH: QVQLVQSGAEVKKPGASVKVSCKASGYTFNTYYMHWVRQAPGQGLEWMGWIDPENGNTIYDQKFQGRVTMTRDTSTSTVYMELSSLRSEDTAVYYCARGYDVDWFVYWGQGTLVTVSS VL: DIQMTQSPSSLSASVGDRVTITCSASSSVSYMYWYQQKPGKAPKLLIYRTSSLQSGVPSRFSGSGSGTDFTLTISSLQPEDFATYYCQQYHSYPPTFGGGTKVEIK | 0.00353 s⁻¹ | 0.000234 s⁻¹ |
| suPAR_DB01_B04 (scFv, V domains shown, screened as scFv) VH: QVQLVQSGAEVKKPGASVKVSCKASGYTFTSYYMHWVRQAPGQGLEWMGWIDHENGNTIYDQKFQGRVTMTRDTSTSTVYMELSSLRSEDTAVYYCARGYDVDWFVYWGQGTLVTVSS VL: DIQMTQSPSSLSASVGDRVTITCSASSSVSYMYWYQQKPGKAPKLLIYRTSNLASGVPSRFSGSGSGTDFTLTISSLQPEDFATYYCQQYHSYPPTFGGGTKVEIK | 0.00206 s⁻¹ | 8.48e-05 s⁻¹ |
| suPAR_DB01_C08 (scFv, V domains shown, screened as scFv) VH: QVQLVQSGAEVKKPGASVKVSCKASGYTFTGYYMHWVRQAPGQGLEWMGWIDHENGNTIYAQKFQGRVTMTRDTSTSTVYMELSSLRSEDTAVYYCARGYDVDWFVYWGQGTLVTVSS VL: DIQMTQSPSSLSASVGDRVTITCSARSSVSYMYWYQQKPGKAPKLLIYRTSNLASGVPSRFSGSGSGTDFTLTISSLQPEDFATYYCQQYHSYPPTFGGGTKVEIK | 0.0013 s⁻¹ | 0.00042 s⁻¹ |
| suPAR_DB01_C07 (scFv, V domains shown, screened as scFv) VH: QVQLVQSGAEVKKPGASVKVSCKASGYTFTSYYMHWVRQAPGQGLEWMGWIDHENGSTSYDQKFQGRVTMTRDTSTSTVYMELSSLRSEDTAVYYCARGYDVDWFVYWGQGTLVTVSS VL: DIQMTQSPSSLSASVGDRVTITCRARQSVSYMYWYQQKPGKAPKLLIYRTSNLASGVPSRFSGSGSGTDFTLTISSLQPEDFATYYCQQYHSYPPTFGGGTKVEIK | 0.00164 s⁻¹ | 2.66e-05 s⁻¹ |
| suPAR_DB01_B11 (scFv, V domains shown, screened as scFv) VH: QVQLVQSGAEVKKPGASVKVSCKASGYTFTDYYMHWVRQAPGQGLEWMGWIDHENGSTSYDQKFQGRVTMTRDTSTSTVYMELSSLRSEDTAVYYCARGYDVDWFVYWGQGTLVTVSS VL: DIQMTQSPSSLSASVGDRVTITCSARSSVSYMYWYQQKPGKAPKLLIYRTSNLASGVPSRFSGSGSGTDFTLTISSLQPEDFATYYCQQYHSYPPTFGGGTKVEIK | 0.00273 s⁻¹ | 8.79e-05 s⁻¹ |
| suPAR_DB01_D05 (scFv, V domains shown, screened as scFv) VH: QVQLVQSGAEVKKPGASVKVSCKASGYTFTGSYVHWVRQAPGQGLEWMGWIDHENGNTIYDQKFQGRVTMTRDTSTSTVYMELSSLRSEDTAVYYCARGYDVDWFVYWGQGTLVTVSS VL: DIQMTQSPSSLSASVGDRVTITCSARQSVSYMYWYQQKPGKAPKLLIYRTSNLASGVPSRFSGSGSGTDFTLTISSLQPEDFATYYCQQYHSYPPTFGGGTKVEIK | 0.00224 s⁻¹ | 0.000419 s⁻¹ |
